According to patent publication US20180339017A1 (Merck Sharp & Dohme, published 2018):
Like-named read-outs stand apart in the source and are kept apart here. Starred links: 1 amine or outer side, 2 acyl side, 3 side chain; linkers in the order of their positions; H or OH if unused. Non-standard residues stand in square brackets, D forms with d. Groups on a side chain read outwards from the residue. No end group written: not given here. *: point of attachment. γGlu = O=C(O)[C@H](CCC(=O)[*:2])N[*:1]; Palmitoyl = CCCCCCCCCCCCCCCC(=O)*

Assays:
Test in all cases: cell-based or functional assay
human glucagon receptor [1] = target: T1, human glucagon receptor (human, UniProt P47871 26-477)
human GLP-1 receptor [2] = target: T2, human GLP-1 receptor (human, UniProt P43220 24-463)
human glucagon receptor [3] = target: T1, human glucagon receptor; remark: listed apart in the source
human GLP-1 receptor [4] = target: T2, human GLP-1 receptor; remark: listed apart in the source

T1 sequence (P47871 26-477): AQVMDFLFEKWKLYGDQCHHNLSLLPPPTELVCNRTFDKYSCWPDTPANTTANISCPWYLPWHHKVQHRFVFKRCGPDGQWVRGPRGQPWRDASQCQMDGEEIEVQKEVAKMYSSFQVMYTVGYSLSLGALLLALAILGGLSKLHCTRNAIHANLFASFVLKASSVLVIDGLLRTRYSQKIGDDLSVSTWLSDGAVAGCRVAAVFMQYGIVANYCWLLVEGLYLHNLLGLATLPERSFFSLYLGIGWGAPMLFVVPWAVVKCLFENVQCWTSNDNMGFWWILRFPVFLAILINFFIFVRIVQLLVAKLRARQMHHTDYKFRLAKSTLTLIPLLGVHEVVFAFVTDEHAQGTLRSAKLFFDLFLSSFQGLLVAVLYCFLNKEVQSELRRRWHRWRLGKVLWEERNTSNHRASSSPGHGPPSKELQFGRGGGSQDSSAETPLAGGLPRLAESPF

| Binder | EC50 hGCGR (cAMP activity assay) (human glucagon receptor [1]) [nM] | EC50 hGLP1R (cAMP activity assay) (human GLP-1 receptor [2]) [nM] | EC50 hGCGR (cAMP activity assay) (human glucagon receptor [3]) [nM] | EC50 hGLP1 (cAMP activity assay) (human GLP-1 receptor [4]) [nM] |
| --- | --- | --- | --- | --- |
| HSQGTFTSDYSKYLDSRRAHDFVQWLLNT-NH2 [PD29] | 0.02 | 0.02 | 0.02 | 0.02 |
| H[dS]QGTFTSDK([γGlu-γGlu-Palmitoyl])SKYLDNKRAQDFVQWLMQT-NH2 (N-terminus assumed; SMILES CCCCCCCCCCCCCCCC(=O)N[C@@H](CCC(=O)N[C@@H](CCC(=O)NCCCC[C@H](NC(=O)[C@H](CC(=O)O)NC(=O)[C@H](CO)NC(=O)[C@@H](NC(=O)[C@H](Cc1ccccc1)NC(=O)[C@@H](NC(=O)CNC(=O)[C@H](CCC(N)=O)NC(=O)[C@@H](CO)NC(=O)[C@@H](N)Cc1c[nH]cn1)[C@@H](C)O)[C@@H](C)O)C(=O)N[C@@H](CO)C(=O)N[C@@H](CCCCN)C(=O)N[C@@H](Cc1ccc(O)cc1)C(=O)N[C@@H](CC(C)C)C(=O)N[C@@H](CC(=O)O)C(=O)N[C@@H](CC(N)=O)C(=O)N[C@@H](CCCCN)C(=O)N[C@@H](CCCNC(=N)N)C(=O)N[C@@H](C)C(=O)N[C@@H](CCC(N)=O)C(=O)N[C@@H](CC(=O)O)C(=O)N[C@@H](Cc1ccccc1)C(=O)N[C@H](C(=O)N[C@@H](CCC(N)=O)C(=O)N[C@@H](Cc1c[nH]c2ccccc12)C(=O)N[C@@H](CC(C)C)C(=O)N[C@@H](CCSC)C(=O)N[C@@H](CCC(N)=O)C(=O)N[C@H](C(N)=O)[C@@H](C)O)C(C)C)C(=O)O)C(=O)O) [TP534] | – | – | 0.01 | 0.02 |
